From patent publication US20170267768A1 (University of California, published 2017)
Changes are numbered by the printed parent chain.

B1: scFv-3C (scFv)
scFv: QVQLVQSGGGLVQPGGSLRLSCAASGFTFSSYAMHWVRQAPGKGLEWVTVISPDGHNTYYADSVKGRFTISRDNSKNTLYLQMNSLRAEDTAVYYCARASVGATGPFDIWGQGTLVTVSSASTGGGGSGGGGSGGGGSGGGGSSSELTQPPSVSVAPGQTVTITCQGDSLRSYYASWYQQKPGTAPKLLIYGENNRPSGVPDRFSGSSSGTSASLTITGAQAEDEADYYCNSRDSSGTHLTVFGGGTKLTVLGGGSGGC
notes: also called clone 3
B2: scFv-2C (scFv)
scFv: B1 scFv with T49S, D54A, H56R, T58K
notes: also called clone 2
B3: scFv-11C (scFv)
scFv: B1 scFv with T49A, P53H, D54H, H56S
notes: also called clone 11
B4: TS1C (scFv)
scFv: B1 scFv with T49A, P53Y, H56S, T58K
notes: also called parental clone TS1 (C form)
B5: scFv-10C (scFv)
scFv: B1 scFv with T49S, V50A, D54P
notes: also called clone 10
B6: scFv-4C (scFv)
scFv: B1 scFv with D54H, H56R, T58K
notes: also called clone 4
B7: scFv-7C (scFv)
scFv: B1 scFv with T49S, D54A, H56P
notes: also called clone 7
B8: scFv-12 (scFv)
scFv: QVQLVQSGGGLVQPGGSLRLSCAASGFTFSSYAMHWVRQAPGKGLEWVAGISHPGDNTYYADSVKGRFTISRDNSKNTLYLQMNSLRAEDTAVYYCARASVGATGPFDIWGQGTLVTVSSASTGGGGSGGGGSGGGGSGGGGSSSELTQPPSVSVAPGQTVTITCQGDSLRSYYASWYQQKPGTAPKLLIYGENNRPSGVPDRFSGSSSGTSASLTITGAQAEDEADYYCNSRDSSGTHLTVFGGGTKLTVLG

Target: T1, His6-tagged recombinant human EphA2 protein (human, UniProt P29317 25-534)
T1 construct: also called his-tagged recombinant, human EphA2; human EphA2 with c-terminal His6
T1 sequence (P29317 25-534 limits assumed): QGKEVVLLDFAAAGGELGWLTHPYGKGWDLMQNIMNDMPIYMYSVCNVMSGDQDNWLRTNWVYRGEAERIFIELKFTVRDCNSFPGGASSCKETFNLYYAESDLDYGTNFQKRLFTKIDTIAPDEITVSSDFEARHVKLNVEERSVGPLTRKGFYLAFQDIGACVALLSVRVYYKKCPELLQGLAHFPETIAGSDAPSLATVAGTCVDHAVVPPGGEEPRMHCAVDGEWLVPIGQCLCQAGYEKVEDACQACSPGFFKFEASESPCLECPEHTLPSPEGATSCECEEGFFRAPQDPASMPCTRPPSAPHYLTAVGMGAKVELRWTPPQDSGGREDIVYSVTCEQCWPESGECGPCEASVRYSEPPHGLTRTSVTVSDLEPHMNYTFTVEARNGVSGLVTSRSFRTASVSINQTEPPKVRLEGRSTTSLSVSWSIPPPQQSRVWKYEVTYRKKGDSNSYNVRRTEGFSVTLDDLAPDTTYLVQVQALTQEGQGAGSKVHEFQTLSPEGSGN
Assay: BLI (Octet Red 96); His6-EphA2 on anti-His sensors; scFv-PEG-DSPE conjugate at 2.5 ug/ml after thermal stress
Excerpt: (§1) A nucleic acid encoding human EphA2 with c-terminal His6 appended was cloned into expression vector pCEP4 (Invitrogen® # V044-50) and transiently expressed in FreeStyle™ 293 cells (Invitrogen® #K900001) following polyethylenenimine transfection. The His6-tagged recombinant human EphA2 protein was purified from the cell culture medium using Ni-NTA Sepharose™ resin (Quiagen®, USA). Anti-His sensors for the fortéBIO® Octet Red 96 system (fortéBIO®-Pall® #18-5116) were coated with his-tagged recombinant, human EphA2 at concentration of 10 μg/ml protein for 300 sec, and a background run was carried out in PBS for 60 sec. For scFv-PEG-DSPE conjugates, the sensors were then incubated with 2.5 μg/ml (Study 1) or 4.0 μg/ml (Study 2) of the conjugate in PBS, pH 7.4, and the slopes of association curves were determined between 3-13 seconds of incubation, corrected for the buffer-only background, and compared across the variants. ScFv-linked liposomes were incubated with the sensors in PBS at 0.025 mM of liposome phospholipid, the slopes of the association curves were determined between 3-20 seconds of incubation, corrected for the buffer-only background, and compared across the variants.
(§2) Results are shown below in Table 6, in which column A gives scFv identifiers; column B indicates percent yield of scFv/lipopolymer linker conjugates; column C gives percent scFv-conjugate (not liposome-bound) EphA2 binding on-rate; column D gives percent scFv-conjugated-liposome EphA2 binding on-rate; and columns E (Study 1) and F (study 2) give percent antigen binding on-rate remaining in the scFv-conjugate (not liposome-bound) following thermal stress.

| Binder | percent antigen binding on-rate remaining in the scFv-conjugate following thermal stress (Study 1) [%] |
| --- | --- |
| B1 | 56.5 |
| B2 | 44.6 |
| B3 | 1.6 |
| B4 | 25.2 |
| B5 | 88.9 |
| B6 | 8.6 |
| B7 | 5.8 |

Target: T1, His6-tagged recombinant human EphA2 …
Assay: BLI (Octet Red 96); His6-EphA2 on anti-His sensors; slope of association curve of scFv-PEG-DSPE conjugate; TS1C printed as 100
Excerpt: as §1, §2

| Binder | percent scFv-conjugate (not liposome-bound) EphA2 binding on-rate [%] |
| --- | --- |
| B1 | 112 |
| B2 | 105 |
| B3 | 109 |
| B4 | 100 |
| B5 | 104 |
| B6 | 97.3 |
| B7 | 110 |

Target: T2, Staphylococcus aureus Protein A (Staphylococcus aureus, UniProt P38507 37-477)
Assay: Protein A binding measured as in Example 1; TS1C is the reference
Description: Protein A binding for multiple samples was determined as follows: scFvs expressed by mammalian cells were obtained from cultures by centrifugation at 4000 g for 15 minutes to remove cells. The scFv titer in the supernatant was determined using Fortebio. Protein A binding was assayed using a 96 well Protein A plate (Protein A 96 well protein purification plate (GE Healthcare: Life Sciences, Protein A HP MultiTrap®) which contains Protein A-conjugated resin in wells with porous bottoms, allowing liquid in the wells to be collected from underneath via centrifugation or suction. Each well of the plate was washed with 1×PBS, and supernatant containing 250 μg of protein was loaded into each well. The supernatant is then separated from the Protein A resin using a vacuum manifold (Whatman®) with 10 mbar of pressure and the flow-through from each well separately collected into empty wells of a standard 96 well plate. The wells of the Protein A plate were then washed with 600 μL of 1×PBS (pH 7.6). To elute the resin-bound Ab, 200 μL of 0.1M acetic acid was added to each well and incubated at room temperature for 3-10 minutes. […]
(§3) The fold improvement in Protein A binding capacity (as compared to TS1C) was measured as described in Example 1.

| Binder | Fold Improvement in Protein A Binding Capacity [fold] |
| --- | --- |
| B4 | 1 |

Target: T1, His6-tagged recombinant human EphA2 …
Assay: BLI (Octet Red 96); His6-EphA2 on anti-His sensors; slope of association curve of scFv-linked liposomes at 0.025 mM phospholipid; TS1C printed as 100
Excerpt: as §1, §2

| Binder | percent scFv-conjugated-liposome EphA2 binding on-rate [%] |
| --- | --- |
| B1 | 119 |
| B2 | 117 |
| B3 | 120 |
| B4 | 100 |
| B5 | 110 |
| B6 | 118 |
| B7 | 119 |

Target: T1, His6-tagged recombinant human EphA2 …
Assay: BLI (Octet Red 96); His6-EphA2 on anti-His sensors; scFv-PEG-DSPE conjugate at 4.0 ug/ml after thermal stress
Excerpt: as §1, §2

| Binder | percent antigen binding on-rate remaining in the scFv-conjugate following thermal stress (Study 2) [%] |
| --- | --- |
| B1 | 46.9 |
| B2 | 26.9 |
| B3 | -0.09 |
| B4 | 13 |
| B5 | 98.8 |
| B6 | 5.6 |
| B7 | 4.8 |

Target: T3, murine EphA2 on CT-26 cells (mouse, UniProt Q03145 26-977)
T3 construct: whole, on cells
T3 sequence (Q03145 26-977): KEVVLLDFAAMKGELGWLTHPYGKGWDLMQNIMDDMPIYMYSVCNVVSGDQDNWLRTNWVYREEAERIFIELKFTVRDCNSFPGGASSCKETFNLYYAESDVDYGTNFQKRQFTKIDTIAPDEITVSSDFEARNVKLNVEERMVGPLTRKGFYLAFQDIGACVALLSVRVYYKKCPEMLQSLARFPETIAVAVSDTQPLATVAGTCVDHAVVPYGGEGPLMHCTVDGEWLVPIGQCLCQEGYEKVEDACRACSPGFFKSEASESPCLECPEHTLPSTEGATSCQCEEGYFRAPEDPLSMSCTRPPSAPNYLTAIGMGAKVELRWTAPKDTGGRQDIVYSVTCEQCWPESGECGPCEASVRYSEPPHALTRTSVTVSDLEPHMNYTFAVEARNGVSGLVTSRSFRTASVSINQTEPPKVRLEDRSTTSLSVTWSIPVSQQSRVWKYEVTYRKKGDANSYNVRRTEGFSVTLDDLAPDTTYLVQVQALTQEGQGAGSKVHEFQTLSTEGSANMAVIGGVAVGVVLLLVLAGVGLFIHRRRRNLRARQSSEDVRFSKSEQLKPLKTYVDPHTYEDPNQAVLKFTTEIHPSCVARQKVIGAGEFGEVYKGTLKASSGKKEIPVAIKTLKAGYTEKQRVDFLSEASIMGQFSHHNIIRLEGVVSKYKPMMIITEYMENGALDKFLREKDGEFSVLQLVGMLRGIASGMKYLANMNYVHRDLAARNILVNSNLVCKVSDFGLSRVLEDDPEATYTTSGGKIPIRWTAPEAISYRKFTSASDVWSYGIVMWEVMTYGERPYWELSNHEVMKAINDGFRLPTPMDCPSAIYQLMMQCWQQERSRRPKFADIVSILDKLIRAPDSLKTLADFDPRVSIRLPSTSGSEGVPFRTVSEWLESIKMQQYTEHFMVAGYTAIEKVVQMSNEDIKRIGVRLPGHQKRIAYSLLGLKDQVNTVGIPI
Assay: CLIA: scFv-decorated fluorescent NTA(Ni) liposomes on CT-26 cells, FACS
Description: The concentration of liposomal phospholipid was then determined after acid digestion using spectrophotometric phosphomolybdate method. Prior to incubation with cells the liposomes were diluted to 0.4 mM phospholipid in Hank's Balanced Salt Solution (HBSS), and NiSO₄ was added to 0.1 mM. The hexahistidine scFvs were diluted into cell culture medium (see below) to the concentration of 25 μg/mL of scFv and mixed with equal volume of the liposome solution (“fluorescent NTA-liposome/scFv mixture”).
By measuring fluorescence of the cells prior to and after incubation/wash with imidazole, which disrupts His6/Ni complexes and thereby releases and removes external (but not internalized) histidine-tagged scFv, the percentage of Ab internalized is quantitated. The test cells (human cancer cell lines OVCAR-3 and U-251 and the murine cancer cell line CT-26) were grown in the adherent state in […] cell culture medium supplemented with 10% FBS, 1× penicillin/streptomycin, and L-glutamine, to 90% confluence and harvested using 0.25% trypsin-EDTA. […] The relative amounts of cell-associated liposomes were evaluated by FACS (Cy5 fluorescence channel). The “binding” amount included both cell surface-bound and internalized liposomes and was proportional to cell fluorescence without imidazole wash. […]

| Binder | binding result |
| --- | --- |
| B8 | no binding |

Target: T2, Staphylococcus aureus Protein A
Assay: Protein A binding measured as in Example 1, compared to TS1C
Description: Protein A binding for multiple samples was determined as follows: scFvs expressed by mammalian cells were obtained from cultures by centrifugation at 4000 g for 15 minutes to remove cells. The scFv titer in the supernatant was determined using Fortebio. Protein A binding was assayed using a 96 well Protein A plate (Protein A 96 well protein purification plate (GE Healthcare: Life Sciences, Protein A HP MultiTrap®) which contains Protein A-conjugated resin in wells with porous bottoms, allowing liquid in the wells to be collected from underneath via centrifugation or suction. Each well of the plate was washed with 1×PBS, and supernatant containing 250 μg of protein was loaded into each well. The supernatant is then separated from the Protein A resin using a vacuum manifold (Whatman®) with 10 mbar of pressure and the flow-through from each well separately collected into empty wells of a standard 96 well plate. The wells of the Protein A plate were then washed with 600 μL of 1×PBS (pH 7.6). To elute the resin-bound Ab, 200 μL of 0.1M acetic acid was added to each well and incubated at room temperature for 3-10 minutes. The plate was placed over a second plate to capture eluate and centrifuged at 100×g for 2 minutes, and 20 μL of 1M Tris, pH 8.0 was added to neutralize the Abs in the eluate. To determine the percentage of Protein A binding, the concentration of scFv remaining in the flow-through was compared to the amount of protein (250 ug) loaded originally.
as §3

| Binder | Fold Improvement in Protein A Binding Capacity [fold] |
| --- | --- |
| B1 | 6 |
| B2 | 5.5 |
| B3 | 8.5 |
| B5 | 12.3 |
| B6 | 5.8 |
| B7 | 10.3 |
